# Reference: publication PMC6748948 (2019)
# Experiments:
# [1] = biological target: Peptide P3 (BMP9 peptide mimetic designed from the type I receptor binding site) (UniProt Q9UK05 320-429); experiment: SPR
# [2] = biological target: Peptide P3r (randomly shuffled amino acid sequence of peptide P3); experiment: SPR
Kd [1] [mM],Kd [2] [mM],Binder
6.7,9.42,"ALK2-Fc (activin receptor like kinase 2, Fc fusion) (Fc fusion) MEDEKPKVNPKLYMCVCEGLSCGNEDHCEGQQCFSSLSINDGFHVYQKGCFQVYEQGKMTCKTPPSPGQAVECCQGDWCNRNITAQLPTKGKSFPGTQNFHLE"
5.8,4.3,"ALK3-Fc (activin receptor like kinase 3, Fc fusion) (Fc fusion) QNLDSMLHGTGMKSDSDQKKSENGVTLAPEDTLPFLKCYCSGHCPDDAINNTCITNGHCFAIIEEDDQGETTLASGCMKYEGSDFQCKDSPKAQLRRTIECCRTNLCNQYLQPTLPPVVIGPFFDGSIR"
